In article PMC3182996 one finds Kd data, which are given here for one substance.

pKd: −log10 of the molar value.

The target in experiment [1] is Aβ^40Arc fibrils (pre-formed fibrils of Aβ1–40 Glu22Gly). Nature of the experiment: SPR; co-injection: 2 µM Aβ injected for 30 s over immobilised pre-formed fibrils at 20 µl/min in PBS at 25°C, at once followed by 0–400 nM Aβ; the concentration that gives a plateau (critical concentration) is taken as the binding constant. Background: Surface plasmon resonance follows binding to a sensor surface in real time, without labels.

Experiment [2] addresses Aβ^40WT fibrils (pre-formed fibrils of wild type Aβ1–40) (UniProt P05067). Described as above.

What is called pKd is −log10 of the Kd, conventionally taken in molar units. Read a low pKd as a high Kd. In the case of “Aβ1–40 Glu22Gly (Arctic variant), monomeric (peptide)”, the pKd in experiment [1] was 7.00; in experiment [2] it was 7.30.
